# Data taken from IntAct's records for PubMed 20543827.
# B1: Retinoic acid receptor alpha (Homo sapiens), P10276 (parent)
# chain: MASNSSSCPTPGGGHLNGYPVPPYAFFFPPMLGGLSPPGALTTLQHQLPVSGYSTPSPATIETQSSSSEEIVPSPPSPPPLPRIYKPCFVCQDKSSGYHYGVSACEGCKGFFRRSIQKNMVYTCHRDKNCIINKVTRNRCQYCRLQKCFEVGMSKESVRNDRNKKKKEVPKPECSESYTLTPEVGELIEKVRKAHQETFPALCQLGKYTTNNSSEQRVSLDIDLWDKFSELSTKCIIKTVEFAKQLPGFTTLTIADQITLLKAACLDILILRICTRYTPEQDTMTFSDGLTLNRTQMHNAGFGPLTDLVFAFANQLLPLEMDDAETGLLSAICLICGDRQDLEQPDRVDMLQEPLLEALKVYVRKRRPSRPHMFPKMLMKITDLRSISAKGAERVITLKMEIPGSMPPLIQEMLENSEGLDTLSGQPGGGGRDGGGLAPPPGSCSPSLSPSSNRSSPATHSP
# Variants of: B1
# Details: with ncor1_human NCOR1, O75376
# Sequence of ncor1_human NCOR1, O75376 (O75376 whole entry): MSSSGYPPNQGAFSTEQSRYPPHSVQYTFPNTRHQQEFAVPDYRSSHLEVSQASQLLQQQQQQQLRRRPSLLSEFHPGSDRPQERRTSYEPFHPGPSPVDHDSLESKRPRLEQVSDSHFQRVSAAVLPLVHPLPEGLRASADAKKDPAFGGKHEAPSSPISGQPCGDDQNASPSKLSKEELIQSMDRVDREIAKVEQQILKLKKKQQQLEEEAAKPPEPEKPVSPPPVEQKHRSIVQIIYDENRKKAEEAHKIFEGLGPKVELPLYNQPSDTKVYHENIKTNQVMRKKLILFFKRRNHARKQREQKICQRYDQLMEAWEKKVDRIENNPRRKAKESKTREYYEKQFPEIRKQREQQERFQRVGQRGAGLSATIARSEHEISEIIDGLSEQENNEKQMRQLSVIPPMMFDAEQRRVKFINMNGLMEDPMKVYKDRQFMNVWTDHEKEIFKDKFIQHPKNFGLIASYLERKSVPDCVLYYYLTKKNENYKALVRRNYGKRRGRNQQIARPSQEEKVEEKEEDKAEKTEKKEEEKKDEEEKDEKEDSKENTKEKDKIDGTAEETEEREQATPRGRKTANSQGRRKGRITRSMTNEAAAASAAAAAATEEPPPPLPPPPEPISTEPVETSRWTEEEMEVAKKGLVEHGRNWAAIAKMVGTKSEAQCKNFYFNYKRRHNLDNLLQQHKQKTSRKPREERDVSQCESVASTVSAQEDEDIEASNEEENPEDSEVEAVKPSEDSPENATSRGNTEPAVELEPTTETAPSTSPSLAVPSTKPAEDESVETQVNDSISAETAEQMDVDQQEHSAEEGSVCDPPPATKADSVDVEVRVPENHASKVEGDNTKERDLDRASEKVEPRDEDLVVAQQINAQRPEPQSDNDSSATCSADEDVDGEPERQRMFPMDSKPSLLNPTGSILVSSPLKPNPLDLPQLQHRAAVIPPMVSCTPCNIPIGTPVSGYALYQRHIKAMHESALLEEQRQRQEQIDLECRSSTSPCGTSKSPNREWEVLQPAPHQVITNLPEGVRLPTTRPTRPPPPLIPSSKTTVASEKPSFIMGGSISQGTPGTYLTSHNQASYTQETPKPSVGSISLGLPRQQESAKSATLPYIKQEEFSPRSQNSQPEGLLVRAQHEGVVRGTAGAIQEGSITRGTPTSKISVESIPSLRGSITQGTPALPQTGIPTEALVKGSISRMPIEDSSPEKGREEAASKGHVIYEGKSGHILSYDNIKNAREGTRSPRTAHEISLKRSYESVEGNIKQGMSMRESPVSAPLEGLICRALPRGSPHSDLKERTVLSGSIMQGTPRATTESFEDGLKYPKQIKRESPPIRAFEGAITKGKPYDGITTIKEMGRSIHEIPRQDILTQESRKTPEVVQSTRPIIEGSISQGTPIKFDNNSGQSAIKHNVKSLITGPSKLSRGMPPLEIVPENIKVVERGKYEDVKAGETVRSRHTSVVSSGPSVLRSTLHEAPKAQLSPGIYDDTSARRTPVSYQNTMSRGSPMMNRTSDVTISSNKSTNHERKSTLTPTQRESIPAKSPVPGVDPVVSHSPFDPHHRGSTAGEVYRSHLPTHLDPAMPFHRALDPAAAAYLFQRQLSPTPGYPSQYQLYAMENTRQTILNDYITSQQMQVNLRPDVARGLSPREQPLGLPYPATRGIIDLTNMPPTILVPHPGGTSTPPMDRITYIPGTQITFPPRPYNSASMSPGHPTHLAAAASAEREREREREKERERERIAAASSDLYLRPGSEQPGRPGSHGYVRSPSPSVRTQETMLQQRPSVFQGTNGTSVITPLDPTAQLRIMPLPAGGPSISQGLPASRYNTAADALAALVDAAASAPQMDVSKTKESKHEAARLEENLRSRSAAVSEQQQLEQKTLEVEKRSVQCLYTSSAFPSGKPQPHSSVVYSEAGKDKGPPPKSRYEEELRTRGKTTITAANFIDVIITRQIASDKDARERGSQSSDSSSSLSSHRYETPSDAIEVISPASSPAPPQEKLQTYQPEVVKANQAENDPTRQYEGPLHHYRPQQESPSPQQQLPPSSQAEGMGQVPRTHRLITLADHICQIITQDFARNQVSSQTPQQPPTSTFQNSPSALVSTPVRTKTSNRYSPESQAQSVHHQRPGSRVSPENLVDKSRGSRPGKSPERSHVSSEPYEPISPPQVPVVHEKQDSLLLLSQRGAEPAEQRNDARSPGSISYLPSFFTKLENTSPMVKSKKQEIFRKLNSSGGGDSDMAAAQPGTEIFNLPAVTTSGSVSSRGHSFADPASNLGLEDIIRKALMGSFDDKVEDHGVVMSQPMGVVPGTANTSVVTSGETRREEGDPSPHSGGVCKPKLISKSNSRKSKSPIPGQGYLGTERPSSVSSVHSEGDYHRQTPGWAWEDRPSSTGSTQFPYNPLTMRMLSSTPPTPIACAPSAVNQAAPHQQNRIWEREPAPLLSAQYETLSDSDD
row,Variant,effect of a mutation on the interaction
1,MASNSSSCPTPGGGHLNGYPVPPYAFFFPPMLGGLSPPGALTTLQHQLPVSGYSTPSPATIETQSSSSEEIVPSPPSPPPLPRIYKPCFVCQDKSSGYHYGVSACEGCKGFFRRSIQKNMVYTCHRDKNCIINKVTRNRCQYCRLQKCFEVGMSKESVRNDRNKKKKEVPKPECSESYTLTPEVGELIEKVRKAHQETFPALCQLGKYTTNNSSEQRVSLDIDLWDKFSELSTKCIIKTVEFAKQLPGFTTLTIADQITLLKAACLDILILRICTRYTPEQDTMTFSDGLTLNRTQMHNAGFGPLTDLVFAFANQLLPLEMDDAETGLLSAICLICGDRQDLEQPDRVDMLQEPLLEALKVYVRKRRPSRPHMFPKMLMKITDLRSISAKGAERVETLKMEIPGSMPPLIQEMLENSEGLDTLSGQPGGGGRDGGGLAPPPGSCSPSLSPSSNRSSPATHSP [I396E],decreasing interaction

# Variants of: B1
# Details: with ncor1_mouse Ncor1, Q60974
row,Variant,effect of a mutation on the interaction
1,MASNSSSCPTPGGGHLNGYPVPPYAFFFPPMLGGLSPPGALTTLQHQLPVSGYSTPSPATIETQSSSSEEIVPSPPSPPPLPRIYKPCFVCQDKSSGYHYGVSACEGCKGFFRRSIQKNMVYTCHRDKNCIINKVTRNRCQYCRLQKCFEVGMSKESVRNDRNKKKKEVPKPECSESYTLTPEVGELIEKVRKAHQETFPALCQLGKYTTNNSSEQRVSLDIDLWDKFSELSTKCIIKTVEFAKQLPGFTTLTIADQITLLKAACLDILILRICTRYTPEQDTMTFSDGLTLNRTQMHNAGFGPLTDLVFAFANQLLPLEMDDAETGLLSAICLICGDRQDLEQPDRVDMLQEPLLEALKVYVRKRRPSRPHMFPKMLMKITDLRSISAKGAERVETLKMEIPGSMPPLIQEMLENSEGLDTLSGQPGGGGRDGGGLAPPPGSCSPSLSPSSNRSSPATHSP [I396E],disrupting interaction

# Variants of: B1
# Details: with ncor2_human NCOR2, Q9Y618
# Sequence of ncor2_human NCOR2, Q9Y618 (Q9Y618 whole entry): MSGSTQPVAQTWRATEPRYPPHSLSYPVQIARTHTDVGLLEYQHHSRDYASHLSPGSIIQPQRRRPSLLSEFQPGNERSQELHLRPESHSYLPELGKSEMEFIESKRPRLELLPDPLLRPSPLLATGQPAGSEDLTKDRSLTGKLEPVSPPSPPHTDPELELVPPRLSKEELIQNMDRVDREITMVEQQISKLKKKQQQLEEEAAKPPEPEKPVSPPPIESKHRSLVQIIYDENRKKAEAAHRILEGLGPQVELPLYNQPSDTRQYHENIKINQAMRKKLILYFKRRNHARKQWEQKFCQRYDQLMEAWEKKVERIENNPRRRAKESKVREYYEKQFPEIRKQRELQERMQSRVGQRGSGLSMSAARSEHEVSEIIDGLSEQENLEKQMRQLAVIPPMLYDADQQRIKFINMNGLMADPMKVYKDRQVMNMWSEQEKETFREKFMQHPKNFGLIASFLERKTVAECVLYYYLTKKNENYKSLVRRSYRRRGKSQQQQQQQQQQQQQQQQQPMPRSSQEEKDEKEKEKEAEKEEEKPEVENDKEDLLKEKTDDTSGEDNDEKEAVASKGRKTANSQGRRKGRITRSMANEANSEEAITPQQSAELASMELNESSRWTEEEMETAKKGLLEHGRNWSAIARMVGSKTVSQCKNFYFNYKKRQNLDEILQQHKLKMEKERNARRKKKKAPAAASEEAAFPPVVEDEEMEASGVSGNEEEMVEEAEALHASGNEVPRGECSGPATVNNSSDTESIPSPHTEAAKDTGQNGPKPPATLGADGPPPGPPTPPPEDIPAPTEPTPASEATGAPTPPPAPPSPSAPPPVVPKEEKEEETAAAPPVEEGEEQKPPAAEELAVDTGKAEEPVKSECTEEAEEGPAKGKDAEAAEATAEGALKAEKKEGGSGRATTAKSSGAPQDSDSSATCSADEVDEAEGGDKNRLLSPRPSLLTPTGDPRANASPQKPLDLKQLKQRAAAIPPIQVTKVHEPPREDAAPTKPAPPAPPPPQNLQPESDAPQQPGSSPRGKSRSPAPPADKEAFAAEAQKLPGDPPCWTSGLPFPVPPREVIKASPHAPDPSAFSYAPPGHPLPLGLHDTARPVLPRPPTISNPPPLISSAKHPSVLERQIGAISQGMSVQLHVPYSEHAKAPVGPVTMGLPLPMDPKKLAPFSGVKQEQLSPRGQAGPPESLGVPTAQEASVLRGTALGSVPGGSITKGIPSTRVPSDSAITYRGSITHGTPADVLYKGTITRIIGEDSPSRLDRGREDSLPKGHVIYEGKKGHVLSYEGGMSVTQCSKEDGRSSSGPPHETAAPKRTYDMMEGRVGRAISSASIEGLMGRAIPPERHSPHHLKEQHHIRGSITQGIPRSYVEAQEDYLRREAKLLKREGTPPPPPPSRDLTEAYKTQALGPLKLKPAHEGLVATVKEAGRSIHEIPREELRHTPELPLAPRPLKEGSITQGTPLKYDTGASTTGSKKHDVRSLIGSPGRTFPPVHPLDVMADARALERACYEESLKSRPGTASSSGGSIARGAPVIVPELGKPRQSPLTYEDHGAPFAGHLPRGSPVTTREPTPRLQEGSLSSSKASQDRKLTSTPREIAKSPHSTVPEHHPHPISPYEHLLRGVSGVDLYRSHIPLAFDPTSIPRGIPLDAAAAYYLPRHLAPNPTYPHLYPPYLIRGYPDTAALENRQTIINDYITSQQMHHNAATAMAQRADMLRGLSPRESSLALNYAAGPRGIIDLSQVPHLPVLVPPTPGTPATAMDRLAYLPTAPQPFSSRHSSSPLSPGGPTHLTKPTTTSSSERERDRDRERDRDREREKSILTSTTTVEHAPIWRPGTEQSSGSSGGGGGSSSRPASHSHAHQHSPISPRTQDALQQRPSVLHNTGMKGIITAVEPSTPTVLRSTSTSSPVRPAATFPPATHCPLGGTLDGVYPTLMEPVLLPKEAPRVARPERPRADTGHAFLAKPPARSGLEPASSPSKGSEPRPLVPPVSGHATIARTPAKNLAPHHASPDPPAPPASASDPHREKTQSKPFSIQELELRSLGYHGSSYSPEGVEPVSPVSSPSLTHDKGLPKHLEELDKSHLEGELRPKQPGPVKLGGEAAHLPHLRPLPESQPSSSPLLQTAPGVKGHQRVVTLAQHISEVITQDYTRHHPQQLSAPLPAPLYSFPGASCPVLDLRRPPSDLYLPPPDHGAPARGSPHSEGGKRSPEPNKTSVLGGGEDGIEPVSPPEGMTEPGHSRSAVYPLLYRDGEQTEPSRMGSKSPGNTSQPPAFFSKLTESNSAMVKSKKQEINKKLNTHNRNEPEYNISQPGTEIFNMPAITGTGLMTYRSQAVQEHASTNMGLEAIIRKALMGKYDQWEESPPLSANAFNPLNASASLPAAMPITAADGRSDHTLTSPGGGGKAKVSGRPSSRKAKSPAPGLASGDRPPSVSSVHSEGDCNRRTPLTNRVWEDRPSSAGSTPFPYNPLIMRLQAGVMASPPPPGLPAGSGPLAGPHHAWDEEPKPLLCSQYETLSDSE
row,Variant,effect of a mutation on the interaction
1,MASNSSSCPTPGGGHLNGYPVPPYAFFFPPMLGGLSPPGALTTLQHQLPVSGYSTPSPATIETQSSSSEEIVPSPPSPPPLPRIYKPCFVCQDKSSGYHYGVSACEGCKGFFRRSIQKNMVYTCHRDKNCIINKVTRNRCQYCRLQKCFEVGMSKESVRNDRNKKKKEVPKPECSESYTLTPEVGELIEKVRKAHQETFPALCQLGKYTTNNSSEQRVSLDIDLWDKFSELSTKCIIKTVEFAKQLPGFTTLTIADQITLLKAACLDILILRICTRYTPEQDTMTFSDGLTLNRTQMHNAGFGPLTDLVFAFANQLLPLEMDDAETGLLSAICLICGDRQDLEQPDRVDMLQEPLLEALKVYVRKRRPSRPHMFPKMLMKITDLRSISAKGAERVETLKMEIPGSMPPLIQEMLENSEGLDTLSGQPGGGGRDGGGLAPPPGSCSPSLSPSSNRSSPATHSP [I396E],disrupting interaction

# Variants of: B1
# Details: with ncor2_human NCOR2, Q9Y618
# Remark: another data set of the same source
row,Variant,effect of a mutation on the interaction
1,MASNSSSCPTPGGGHLNGYPVPPYAFFFPPMLGGLSPPGALTTLQHQLPVSGYSTPSPATIETQSSSSEEIVPSPPSPPPLPRIYKPCFVCQDKSSGYHYGVSACEGCKGFFRRSIQKNMVYTCHRDKNCIINKVTRNRCQYCRLQKCFEVGMSKESVRNDRNKKKKEVPKPECSESYTLTPEVGELIEKVRKAHQETFPALCQLGKYTTNNSSEQRVSLDIDLWDKFSELSTKCIIKTVEFAKQLPGFTTLTIADQITLLKAACLDILILRICTRYTPEQDTMTFSDGLTLNRTQMHNAGFGPLTDLVFAFANQLLPLEMDDAETGLLSAICLICGDRQDLEQPDRVDMLQEPLLEALKVYVRKRRPSRPHMFPKMLMKITDLRSISAKGAERVETLKMEIPGSMPPLIQEMLENSEGLDTLSGQPGGGGRDGGGLAPPPGSCSPSLSPSSNRSSPATHSP [I396E],decreasing interaction
